This is an account of results in the nanobody polyreactivity screen of Harvey et al. (2022).

This data set can be described thus: yeast display, Sf9 membrane polyspecificity reagent, FACS + sequencing; frameworks hold sequencing errors. The essentials:
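After 36–48 hours of galactose induction, yeast (Saccharomyces cerevisiae BJ5465) displaying a synthetic nanobody library were stained at 4 °C for 1 hour with 10% biotinylated, detergent-solubilized Sf9 membrane reagent. Streptavidin microbeads enriched the stained cells before FACS sorting into low and high (top ~1%) gates on anti-HA and streptavidin fluorescence. Each clone's polyreactivity label reflects its gate of origin.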
Consider “QVQLVESGGGLVQAGGSLRLSCAASGSIFYNAMGWYRQAPGKERELVAAISYRGGRTYYADSVKGRFTISRDNAKNTVYLQMNSLKPEDTAVYYCAADSTVGRYPYDYWGPGTQVTVSS”, for which the “polyreactivity (PSR sort gate)” value is recorded as “high polyreactivity”. The value for “QVQLVESGGGLVQAGGSLRLSCAASGFTFLTYAMGWYRQAPGKERELVAAINNSGGRTYYADSVKGRFTISRDNAKNTVYLQMNSLKPEDTAVYYCAADYLRGKHRYGYWGQGTQVTVSS” was “high polyreactivity”; that for “QVQLVESGGGLVQAGGSLRLSCAASGFTFYRNAMGWYRQAPGKERELVAAISRGGRTYYADSVKGRFTISRDNAKNTVYLQMNSLKQEDTAVYYCAADFYIKYSEFDYWGQGTQVTVSS” was “high polyreactivity”. The entry for “QVQLVESGGGLVQAGGSLRLSCAASGFTFWYYAMGCYRQAPGKERELVPSISSIGGSTYYADSVKGRFTISRDNAKYTVYLQMNSLKPEDTAVYYCAARYKFLRGGVRRDYLGQGTQVTVSS” is “high polyreactivity”; for “QFQLVESGGGLVQAGGSLRLSCAASGRIIAFYARGWYRQAPGKERELVAAITSGSSTNYADSVKGRFTISRDNAKNTVYLQMNSLKPEDTAVYYCAAEGLRKGDRTDWKLYEYWGQGTQVTVSS” it is “high polyreactivity”. The value for “QDQLVESGGGLVQAGGSLRLSCAASGSIFVNNAMGWYRQAPGKERELVAAISRSGGNTYYADSVKGRFTISRDNAKNTVYLQMNSLKPEDTAVYYCAADFRGRYGYWGQGTQVTVSS” was “high polyreactivity”; that for “QVQLVESGGGLVQAGGSLRLSCAASGSTFYLYAKVWYRQAPGKERELVAAISWSGGDTYYADSVKGRFTISRDKAKNTVYLQMNSLKPEDTAVYYCAAEISYSSPGSPRRRDYWGQGTQVTVSS” was “low polyreactivity”; that for “QVQLVESGGGLVQAGGSLRLSCAASGSIFYRYAMGWYRQAPGKERELVAGITRGGSTNYADSVKGRFTISRDNAKNTVYLQMNSLKPEDTAVYYCAARSYVYVHYYYWGQGTQVTVSS” was “high polyreactivity”. For “QVQLVESGGGLVQEGGSLRLSCAASGYIFYYYAMGRYIQAPGKERELVAAISTSDTRTFYADSVKGRFTISRDNAKNTVYLQMNSRKPEDTAVYFCAASLYKGGPNYGYEYWGQGTQVTVSS”, the “polyreactivity (PSR sort gate)” value is “low polyreactivity”. The value for “QVQLVESGGGLVQAGGSLRLSCAASGSIFGYKAMGWYRQAPRKERELVAAIRSSDSRTHYADSVKGRFTISRDNAKNTVYLQMNRLKPEDTAVYYCAAVKRRPGHYLYDYWGQGTQVTVSS” was “low polyreactivity”; that for “LVQLQESGGGLVQAGGSLRLSCAASGTITPGGYKGWYRQAPGKERELVASINVGGSTNYADSVKGRFTISRDNAKKTVYLQMKSLKPEDNAVYYCAVWGRNRLQLSYWGQGTQVTVSS” was “low polyreactivity”; that for “QVQLVESGGGLVQAGGSLRLSCAASGSTFRSYAMGWYRQAPGKERELVAAISVSGGSTYYADSVKGRFTISRDNAKNTVYLQMNSLKPEDTAVYYCAASYVPSYAPGRYYYWGQGTQVTVSS” was “high polyreactivity”. Regarding “QVQLVESGGGLVQAGGSLRLSCAASGLSFTFGYAMGWYRQAPGKERELVASISSSGGNTYYADSVKGRFTISRDNAKNTVYLQMNSLKPEDTAVYYCAVYSHRRNMNYWGQGTQVTVSS”, the “polyreactivity (PSR sort gate)” value is “high polyreactivity”. Regarding “QVQLVESGGGLVQAGGSLRLSCAASGSIIVTYAMGWYRQAPGKERELVATISGGGSTTYADSVKGRFTISRDNAKNTVYLQMNSLKPEDTAVYYCATDARYTSHRTAGYDYWGQGTQVTVSS”, the “polyreactivity (PSR sort gate)” value is given as “low polyreactivity”. The entry for “QVQLVESGGGLVQAGGSLRLSCSASGSTFESNAMGWYRQAPGKERELVASISGSGGSTFYADSVKGRFTISRDNAKNTVYLQMNSLKPEDTAVYYCAAYKEPYYEEYGYWGQGTQVTVSS” is “low polyreactivity”; for “QDQLVESGGGLVQAGGSLRLSCAASGRIFPYYAMGWYRQAPGTERELVAAINSGGSTYYADSVKGRFPISRDNAKNTVYLQMNSLKPEDTAVNYCNADVLYEDGFFWDDYWGQGTQVTVSS” it is “low polyreactivity”. In the case of “QVQLVESGGGLVQAGGSLRLSCAASGRTFGVNAMGWYRQAPGKERELVARNRVSGGRTYYADSVKGRFTISRDNAKNTVYLQMNSLKPEDTAVYYFNAGYTYNRVIWPYYYWGQGTQVTVSS”, the “polyreactivity (PSR sort gate)” value is recorded as “high polyreactivity”.

In the case of “QVQLVESGGGLVQAGGSLRLSCAASGRIFEPYTMGWYRQAPGKEREFVATITASGDSTYYADSVKGRFTISRDNAKNTVFLQMNSLKPEDTAVYYCAAAPFGGYEYDYWGQGTQVTVSS”, the “polyreactivity (PSR sort gate)” value is “high polyreactivity”. As to “QVQLVESGGGLVQAGGSLRLSCAASGLIFGYYAMGWYRQAPGKEREFVAAIDGSDGTTYYADSVKGRFTISRDNAKNTVYLQMNSLKPEDTAVYFCNADSSSYSSDLGYDYWGQGTQVTVSS”, the “polyreactivity (PSR sort gate)” value is “low polyreactivity”. Regarding “QVQLVESGGGLVQAGGSLRLSCAASGRIFTIYAMGWYRQAPGKERELVATISRRGGSTYYADSVKGRFTISRDNAKNTVYFQMNSLKPEETAVYYCAADSVITWWAYDYWGQGTQVTVSS”, the “polyreactivity (PSR sort gate)” value is “high polyreactivity”. The value for “QVQLVESGGGLVQAGGSLRLSCAASGSTFRYYSMGWYRQAPGKERELVAAITYRGGRTYYADSVKGRFTISRDNAKNTDYLQKNSLKPEDTAVYYCAAKSGRHSMDSSGQGTQVTVSS” was “low polyreactivity”; that for “QVQLVESGGGLVQAGGSLRLSCAASGSTFYRYAMAWYRPAPGKERELVAAITRGGGRTYYADSVKGRFTISRDNAKNTVYLQMNSLKPEDTAVYYCNSASPYYDSWGQGTQVTVSS” was “high polyreactivity”; that for “QVQLVESGGGLVQAGGSLRLSCAASGFTFWDYAMGWYRQAPGKERELVAAISDNDGSTDYADSVKGRFTISRDNAKNTVYLQMNSLKPEDTAVYYCNAEIEMPSKEGDYWGQGTQVTVSS” was “low polyreactivity”. Take “QVQLVESGGGLVQAGGSLRLSCAASGITFPVYAMGWYRQAPGKERELVATITSSGGRTYYADSVKGRFTISRDNAKNTVYLQMNSLKPEDTAVYYCAARPPYIRTLYYWGQGTQVTVSS”: the “polyreactivity (PSR sort gate)” value is reported as “high polyreactivity”. The value for “QGQLVESGGGLVQAGGSLRLSCAASGSTLVKYAMGTNRQAPGKERELVAAISWSGGRTDYADSVKGRFTSSRDNAKNTVYLQMNSLKPEDTAVYYCAARSTRFYTPGYYYWGQGTQVTVSS” was “high polyreactivity”; that for “QVQLVESGGGLVQAGGSLRLSCAASGRIFRINTMGWNRQAPGKERELVAAIRTSGSSTYADSVKGRFTISRDNAKNTVYLQMNSLKPEDTAVYYCNTKYPGRGYYWGQGTQVTVSS” was “high polyreactivity”. Regarding “QVQLVESGGGLVQAGGSLRVSCAASGCTFVDYAMCWYRQAPGKERELVAGITSGGSTNYADSVKGRFTISRDNAKNTVYLQMNSVKPEDTAVYDCNADPGQDTPGYTRPEYDYWGQGTQVTVSS”, the “polyreactivity (PSR sort gate)” value is recorded as “low polyreactivity”. The value for “QVQLVESGGGIVQAVGSLRLSCAASGFTFFYYAMGWYRQAPGKERELVATISWNGGTTYYADSVKGRFTISRDNAKNTVYLQMNSLKPEDTAVYYCNARYDWTYLYDAGLVPGWDYDYWGQGTQLTVSS” was “low polyreactivity”.

As for “QVQLVESGGGLVQAGGSLRLSCAASGRTFVGYTMGWYRQAPGKERELVAAIDLSDGSTSYADSVKGRFTISRDNAKNTVYFQMNSLKPEDTAVYYCAKTWANVYAGAHDYWGQGTQVTVSS”, the “polyreactivity (PSR sort gate)” value is on record as “low polyreactivity”. As to “QVQLVESGGGLVQAGGSLRLSCAASGSTFVWYGMGWYRQAPGKEREFVAAISTSGGRTYYADSVKGRFTISRDNAKNTVYLQMNSLKPEDTAVYYCATRPYFTYRWYDYWGQGTQVTVSS”, the “polyreactivity (PSR sort gate)” value was “high polyreactivity”. The value for “QVQHVESGGGLVQAGGSLRLSCAASGRILVSYAMGWYRQAPGKERELVAAISRSGGSTYYADSVKGRFTISRDNAKNTVYLQMNCLKPEDTAVYYCATGLYIQSTYHRYERYNYWGQGTQVTVSS” was “high polyreactivity”; that for “QDQLVESGGGLVQAGGSLRLSCAASGRILTKYAMGWYRQAPGKERELVAAISDSGTGTYYADSVKGRFTISRDNAKNTVYLQMNSLKPEDTAVYYCNAQTRRTRTYHGHKYGYWGQGTQVTVSS” was “high polyreactivity”. The entry for “QVQLVESVGGLVQAGGSLPLTCAASGYTIGPNVMGWYRQAPGKERELVASITSGTSTYYADSVKGRFTISRDNAKNTVYLQMNSLKPEDTAVYYCAAKYSFGRTRWYGYWGQGTQVTVSS” is “high polyreactivity”; for “QVQLVESGGGLVQAGGSLRLSCAASGFTLDPYALGWYRQAPGKERELVAAIRLSGCSTYYADSVKGRFTISRDNAKNTVYLQMNSLKPEDTAVYYCAADGISHWLYRYDYWGQGTQVTVSS” it is “low polyreactivity”. The entry for “QVQLVESGGGLVEAGGSLRLSCAASGRIFLSYAMGWYRQAPGKERELVATITDRGGRTYYADSVKGRFTISRDNAKNTVYLQMNSLKAEDTAVDYCAAGLVYRGYRRDYWGQGTQVTVTS” is “low polyreactivity”; for “QVQLVESAGGLVQAGGRLRLSCAASGSTFGIYAMGWYRQAPGKERELVAAISSGGSTNYADSVKGRFTISRDNAKNTVYLQMNSLKPEDTAVYYCAVESVYEYGGYVDSAYDYWGQGTQVTVSS” it is “low polyreactivity”; for “QVQLVESGGALVQAGGSLRLSCAASGSIFYWYAMGWYRQAPGKEREFVAGITGRGGSTYYADSVKGRFTISRDNAKNTVYLQMNSLKPEDTAVYYADFVKYGKYYQRYDYWGQGTQVTVSS” it is “high polyreactivity”. For “QVQLVESGGGLVQAGGSLRLSCAASGSIFNTYAMGWYRQAPGKERELVAAISRSGDSTYYADSVKGRFTISRDNAKNTVYLQMNSLKPEDSAVYYCATGRTDHGYYYWGQGTQVTVSS”, the “polyreactivity (PSR sort gate)” value is recorded as “high polyreactivity”.

For “QVQLVESGGGLVQAGGSLRLSCAASGRIFYYNAMGWYRQAPGKERELVAAITSGGSTNYADSVKGRFTISRDNAKNTVYLQMNSLNPEDTAVYYCAADYYYYVAGVHYDYWGQGTLVTVSS”, the “polyreactivity (PSR sort gate)” value is reported as “low polyreactivity”. The entry for “QVQLVESCGGLVQAGGSLRLSCAASGSISYYYAMGWYRQAPGKERELVAAITRTGTTNYADSVKGRFTISRDNAKNTVYLQMNSLKPEDTAVYYCAKRSTGRLQSYNYWGQGNQVTVSS” is “low polyreactivity”. The entry for “QVQLVESGGGLVQAGGSLRLSCAASGRTFRDNVMGWYRQAPGKERELVAAITWSSGSTHYADSVKGRFTISRDNAKNTVYLQMNSLKPEDTAVYYCAQKYGARTKYWEGWNVRYDYWGQGTQVTVSS” is “low polyreactivity”.
